The data set concerns Nc1nc2c(ncn2[C@@H]2O[C@H](COP(=O)(O)OP(=O)(O)OP(=O)(O)O)[C@@H](O)[C@H]2O)c(=O)[nH]1. Nature of the data set: malachite green. The data set is classed as biochemical, Streptococcus thermophilus. The note with it: 20 mM Tris pH 8.0, 200 mM KCl, 5 mM MgCl2, 37 °C.

Take “StNFeoB (Streptococcus thermophilus LMG 18311; E66Q/E67Q)”: the Km stood at 187 ± 20 µM.

By Km is commonly meant the concentration of substrate that gives half-maximal velocity.
